Experimental data reported in publication PMC5705219, “A map of human PRDM9 binding provides evidence for novel behaviors of PRDM9 and other zinc-finger proteins in meiosis” (eLife, 2017).

Target: the molecule itself
Assay: co-IP; direct competition: HEK293T transfected with three constructs, Human and Chimp prey with the same epitope tag and Human or Chimp bait with the complementary tag; IP against the bait tag, western against the prey tag; both directions of HA/V5 tagging

B1: full-length human PRDM9 (B allele), C-terminally tagged with HA or V5 (natural protein)
chain: not shown
notes: synthetic cDNA of the full-length 2,685 bp transcript with 218 synonymous base changes in the zinc-finger exon; An HA and a V5 version were made; tag cassette is linker-TwinStrep-linker-HA/V5-linker-P2A between PRDM9 and YFP; also called Human-HA; Human-V5; source: HEK293T, transfected (pLENTI CMV/TO Puro DEST, FuGENE-HD), in lysate; not shown: HA or V5, C-terminal, kept
- fold pull-down efficiency against Chimp PRDM9 prey on the same Human bait: > 2 fold
